From patent publication US20110143394, “Methods and Means for Metabolic Engineering and Improved Product Formation by Micro-Organisms” (Universiteit Leiden, published 2011) come the findings set out here.

In data set [1] the target is T1, DasR (SCO5231) (Streptomyces coelicolor, UniProt Q9K492 SEQ:1-254).
T1 sequence: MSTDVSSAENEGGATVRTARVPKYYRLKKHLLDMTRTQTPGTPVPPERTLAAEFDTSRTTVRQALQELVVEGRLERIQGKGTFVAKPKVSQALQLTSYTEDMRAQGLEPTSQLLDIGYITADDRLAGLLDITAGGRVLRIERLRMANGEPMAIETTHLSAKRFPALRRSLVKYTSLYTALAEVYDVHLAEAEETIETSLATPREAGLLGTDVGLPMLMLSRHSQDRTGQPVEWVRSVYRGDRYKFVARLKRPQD
As to the kind of experiment: EMSA; negative control. To be noted: tags: His6; chain copies: 2; label: fluorescent. As to the method: (§1) Electromobility gel shift assay (EMSA). EMSAs were performed with fluorescent probes (10 nM) with an ALF express sequencer (Filee et al., 2001). Purified DasR (3 μM) and 1000-fold excess of non-specific DNA were used in the reaction mixture. Predicted cis-acting elements were taken from the promoter regions of actII-ORF4 (SCO5085; 5′-[…]-3′ (SEQ ID NO:530)), and redZ (SCO5881; 5′-[…]-3′ (SEQ ID NO:531)). Known cis-acting elements upstream of crr (SCO1390; […]-3′ (SEQ ID NO:532)), and crp (SCO3571; 5′-[…]-3′ (SEQ ID NO:533)) were used as positive and negative controls, respectively. The 16 nt dre sites are underlined.

For data set [2], the target named is T1, DasR (SCO5231). Put plainly: EMSA; no free probe left; 3 uM DasR, 10 nM probe, 1000-fold non-specific DNA; complex prevented by glucosamine-6-P (data not shown). As to conditions: tags: His6; chain copies: 2; label: fluorescent. How it is done:
as §1
Background: A gel shift assay detects complexes by their altered migration in electrophoresis.

B1: crp cis-element oligo (dsDNA)
DNA 1: TGCGGCATCCTTGTGACAGATCACACTGTTTGGACT
DNA 2: AGTCCAAACAGTGTGATCTGTCACAAGGATGCCGCA
Regarding B1, the binding result in the data set with DasR (SCO5231) [1] was “no binding”.

B2: crr dre oligo (dsDNA)
DNA 1: CCGTGAGGAGTGTGGTCTAGACCTCTAATCGGAACA
DNA 2: TGTTCCGATTAGAGGTCTAGACCACACTCCTCACGG
For the molecule B2, the binding result with DasR (SCO5231) [2] is given as “binds”.
